Test results: patent US20230357348A1 (AstraZeneca / MedImmune, published 2023)
Starred links: 1 amine or outer side, 2 acyl side, 3 side chain; linkers in the order of their positions; H or OH if unused. Non-standard residues stand in square brackets, D forms with d. Groups on a side chain read outwards from the residue. No end group written: not given here. *: point of attachment. C20 diacid = O=C(O)CCCCCCCCCCCCCCCCCCC(=O)*; C18 diacid = O=C(O)CCCCCCCCCCCCCCCCC(=O)*; γGlu = O=C(O)[C@H](CCC(=O)[*:2])N[*:1]; αMeF = C[C@](N)(Cc1ccccc1)C(=O)O; AEEA = NCCOCCOCC(=O)O; Aib = CC(C)(N)C(=O)O

Experiments:
[1] = target: human GLP-1 receptor (hGLP-1R) (human, UniProt P43220 24-463); experiment: cell-based or functional assay
[2] = target: human glucagon receptor (hGCGR) (human, UniProt P47871 26-477); experiment: cell-based or functional assay
Chain of human glucagon receptor (hGCGR) (P47871 26-477): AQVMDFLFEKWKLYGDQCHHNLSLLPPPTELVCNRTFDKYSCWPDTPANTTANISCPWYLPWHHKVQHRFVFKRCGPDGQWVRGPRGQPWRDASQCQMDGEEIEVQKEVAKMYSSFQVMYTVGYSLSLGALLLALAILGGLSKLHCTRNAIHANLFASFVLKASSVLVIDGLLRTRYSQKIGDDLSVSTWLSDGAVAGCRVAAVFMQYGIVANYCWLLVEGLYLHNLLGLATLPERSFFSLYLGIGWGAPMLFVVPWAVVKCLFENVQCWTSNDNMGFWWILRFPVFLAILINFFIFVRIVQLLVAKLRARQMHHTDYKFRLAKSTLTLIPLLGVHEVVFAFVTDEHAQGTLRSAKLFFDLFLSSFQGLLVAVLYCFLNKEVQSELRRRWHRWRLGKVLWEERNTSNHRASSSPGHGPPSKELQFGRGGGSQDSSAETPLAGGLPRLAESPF

| Binder | hGLP-1R EC50 (pM) [1] [pM] | hGluc-R EC50 (pM) [2] [pM] |
| --- | --- | --- |
| H[Aib]HGS[αMeF]TSDVSK[αMeF]LDSK([γGlu-C18 diacid])AAQD[αMeF]VESIANT-NH2 (N-terminus assumed; SMILES CC[C@H](C)[C@H](NC(=O)[C@H](CO)NC(=O)[C@H](CCC(=O)O)NC(=O)[C@@H](NC(=O)[C@](C)(Cc1ccccc1)NC(=O)[C@H](CC(=O)O)NC(=O)[C@H](CCC(N)=O)NC(=O)[C@H](C)NC(=O)[C@H](C)NC(=O)[C@H](CCCCNC(=O)CC[C@H](NC(=O)CCCCCCCCCCCCCCCCC(=O)O)C(=O)O)NC(=O)[C@H](CO)NC(=O)[C@H](CC(=O)O)NC(=O)[C@H](CC(C)C)NC(=O)[C@](C)(Cc1ccccc1)NC(=O)[C@H](CCCCN)NC(=O)[C@H](CO)NC(=O)[C@@H](NC(=O)[C@H](CC(=O)O)NC(=O)[C@H](CO)NC(=O)[C@@H](NC(=O)[C@](C)(Cc1ccccc1)NC(=O)[C@H](CO)NC(=O)CNC(=O)[C@H](Cc1c[nH]cn1)NC(=O)C(C)(C)NC(=O)[C@@H](N)Cc1c[nH]cn1)[C@@H](C)O)C(C)C)C(C)C)C(=O)N[C@@H](C)C(=O)N[C@@H](CC(N)=O)C(=O)N[C@H](C(N)=O)[C@@H](C)O) [Peptide 21] | 378 | 68.8 |
| H[Aib]HGS[αMeF]TSDVSK[αMeF]LDSK([AEEA-AEEA-γGlu-γGlu-C20 diacid])AAQD[αMeF]VESIANT-NH2 (N-terminus assumed; SMILES CC[C@H](C)[C@H](NC(=O)[C@H](CO)NC(=O)[C@H](CCC(=O)O)NC(=O)[C@@H](NC(=O)[C@](C)(Cc1ccccc1)NC(=O)[C@H](CC(=O)O)NC(=O)[C@H](CCC(N)=O)NC(=O)[C@H](C)NC(=O)[C@H](C)NC(=O)[C@H](CCCCNC(=O)COCCOCCNC(=O)COCCOCCNC(=O)CC[C@H](NC(=O)CC[C@H](NC(=O)CCCCCCCCCCCCCCCCCCC(=O)O)C(=O)O)C(=O)O)NC(=O)[C@H](CO)NC(=O)[C@H](CC(=O)O)NC(=O)[C@H](CC(C)C)NC(=O)[C@](C)(Cc1ccccc1)NC(=O)[C@H](CCCCN)NC(=O)[C@H](CO)NC(=O)[C@@H](NC(=O)[C@H](CC(=O)O)NC(=O)[C@H](CO)NC(=O)[C@@H](NC(=O)[C@](C)(Cc1ccccc1)NC(=O)[C@H](CO)NC(=O)CNC(=O)[C@H](Cc1c[nH]cn1)NC(=O)C(C)(C)NC(=O)[C@@H](N)Cc1c[nH]cn1)[C@@H](C)O)C(C)C)C(C)C)C(=O)N[C@@H](C)C(=O)N[C@@H](CC(N)=O)C(=O)N[C@H](C(N)=O)[C@@H](C)O) [Peptide 22] | 1230 | 2720 |
| H[Aib]HGS[αMeF]TSDVSK[αMeF]LDSK([AEEA-AEEA-γGlu-γGlu-C18 diacid])AARD[αMeF]VQ[Aib]IANT-NH2 (N-terminus assumed; SMILES CC[C@H](C)[C@H](NC(=O)C(C)(C)NC(=O)[C@H](CCC(N)=O)NC(=O)[C@@H](NC(=O)[C@](C)(Cc1ccccc1)NC(=O)[C@H](CC(=O)O)NC(=O)[C@H](CCCNC(=N)N)NC(=O)[C@H](C)NC(=O)[C@H](C)NC(=O)[C@H](CCCCNC(=O)COCCOCCNC(=O)COCCOCCNC(=O)CC[C@H](NC(=O)CC[C@H](NC(=O)CCCCCCCCCCCCCCCCC(=O)O)C(=O)O)C(=O)O)NC(=O)[C@H](CO)NC(=O)[C@H](CC(=O)O)NC(=O)[C@H](CC(C)C)NC(=O)[C@](C)(Cc1ccccc1)NC(=O)[C@H](CCCCN)NC(=O)[C@H](CO)NC(=O)[C@@H](NC(=O)[C@H](CC(=O)O)NC(=O)[C@H](CO)NC(=O)[C@@H](NC(=O)[C@](C)(Cc1ccccc1)NC(=O)[C@H](CO)NC(=O)CNC(=O)[C@H](Cc1c[nH]cn1)NC(=O)C(C)(C)NC(=O)[C@@H](N)Cc1c[nH]cn1)[C@@H](C)O)C(C)C)C(C)C)C(=O)N[C@@H](C)C(=O)N[C@@H](CC(N)=O)C(=O)N[C@H](C(N)=O)[C@@H](C)O) [Peptide 19] | 38.3 | 133 |
| H[Aib]HGS[αMeF]TSDVSK[αMeF]LDSK([AEEA-AEEA-γGlu-C18 diacid])AAQD[αMeF]VESIANT-NH2 (N-terminus assumed; SMILES CC[C@H](C)[C@H](NC(=O)[C@H](CO)NC(=O)[C@H](CCC(=O)O)NC(=O)[C@@H](NC(=O)[C@](C)(Cc1ccccc1)NC(=O)[C@H](CC(=O)O)NC(=O)[C@H](CCC(N)=O)NC(=O)[C@H](C)NC(=O)[C@H](C)NC(=O)[C@H](CCCCNC(=O)COCCOCCNC(=O)COCCOCCNC(=O)CC[C@H](NC(=O)CCCCCCCCCCCCCCCCC(=O)O)C(=O)O)NC(=O)[C@H](CO)NC(=O)[C@H](CC(=O)O)NC(=O)[C@H](CC(C)C)NC(=O)[C@](C)(Cc1ccccc1)NC(=O)[C@H](CCCCN)NC(=O)[C@H](CO)NC(=O)[C@@H](NC(=O)[C@H](CC(=O)O)NC(=O)[C@H](CO)NC(=O)[C@@H](NC(=O)[C@](C)(Cc1ccccc1)NC(=O)[C@H](CO)NC(=O)CNC(=O)[C@H](Cc1c[nH]cn1)NC(=O)C(C)(C)NC(=O)[C@@H](N)Cc1c[nH]cn1)[C@@H](C)O)C(C)C)C(C)C)C(=O)N[C@@H](C)C(=O)N[C@@H](CC(N)=O)C(=O)N[C@H](C(N)=O)[C@@H](C)O) [Peptide 23] | 266 | 321 |
| H[Aib]HGS[αMeF]TSDVSK[αMeF]LDSK([AEEA-AEEA-γGlu-C18 diacid])AAQD[αMeF]VQ[Aib]IANT-NH2 (N-terminus assumed; SMILES CC[C@H](C)[C@H](NC(=O)C(C)(C)NC(=O)[C@H](CCC(N)=O)NC(=O)[C@@H](NC(=O)[C@](C)(Cc1ccccc1)NC(=O)[C@H](CC(=O)O)NC(=O)[C@H](CCC(N)=O)NC(=O)[C@H](C)NC(=O)[C@H](C)NC(=O)[C@H](CCCCNC(=O)COCCOCCNC(=O)COCCOCCNC(=O)CC[C@H](NC(=O)CCCCCCCCCCCCCCCCC(=O)O)C(=O)O)NC(=O)[C@H](CO)NC(=O)[C@H](CC(=O)O)NC(=O)[C@H](CC(C)C)NC(=O)[C@](C)(Cc1ccccc1)NC(=O)[C@H](CCCCN)NC(=O)[C@H](CO)NC(=O)[C@@H](NC(=O)[C@H](CC(=O)O)NC(=O)[C@H](CO)NC(=O)[C@@H](NC(=O)[C@](C)(Cc1ccccc1)NC(=O)[C@H](CO)NC(=O)CNC(=O)[C@H](Cc1c[nH]cn1)NC(=O)C(C)(C)NC(=O)[C@@H](N)Cc1c[nH]cn1)[C@@H](C)O)C(C)C)C(C)C)C(=O)N[C@@H](C)C(=O)N[C@@H](CC(N)=O)C(=O)N[C@H](C(N)=O)[C@@H](C)O) [Peptide 24] | 82.8 | 101 |
| H[Aib]HGS[αMeF]TSDVSK[αMeF]LDSK([AEEA-AEEA-γGlu-γGlu-C18 diacid])AARD[αMeF]VE[Aib]IANT-NH2 (N-terminus assumed; SMILES CC[C@H](C)[C@H](NC(=O)C(C)(C)NC(=O)[C@H](CCC(=O)O)NC(=O)[C@@H](NC(=O)[C@](C)(Cc1ccccc1)NC(=O)[C@H](CC(=O)O)NC(=O)[C@H](CCCNC(=N)N)NC(=O)[C@H](C)NC(=O)[C@H](C)NC(=O)[C@H](CCCCNC(=O)COCCOCCNC(=O)COCCOCCNC(=O)CC[C@H](NC(=O)CC[C@H](NC(=O)CCCCCCCCCCCCCCCCC(=O)O)C(=O)O)C(=O)O)NC(=O)[C@H](CO)NC(=O)[C@H](CC(=O)O)NC(=O)[C@H](CC(C)C)NC(=O)[C@](C)(Cc1ccccc1)NC(=O)[C@H](CCCCN)NC(=O)[C@H](CO)NC(=O)[C@@H](NC(=O)[C@H](CC(=O)O)NC(=O)[C@H](CO)NC(=O)[C@@H](NC(=O)[C@](C)(Cc1ccccc1)NC(=O)[C@H](CO)NC(=O)CNC(=O)[C@H](Cc1c[nH]cn1)NC(=O)C(C)(C)NC(=O)[C@@H](N)Cc1c[nH]cn1)[C@@H](C)O)C(C)C)C(C)C)C(=O)N[C@@H](C)C(=O)N[C@@H](CC(N)=O)C(=O)N[C@H](C(N)=O)[C@@H](C)O) [Peptide 20] | 152 | 136 |
| H[Aib]HGS[αMeF]TSDVSK[αMeF]LDSK([AEEA-AEEA-γGlu-γGlu-C20 diacid])AAQD[αMeF]VQ[Aib]IANT-NH2 [Peptide 25] | 726 | 1310 |
| H[Aib]QGTFTSDVSK[αMeF]LDSK([AEEA-AEEA-γGlu-C18 diacid])RA[Aib]DFVQWLL[Aib]T-OH (N-terminus assumed; SMILES CC(C)C[C@H](NC(=O)[C@H](Cc1c[nH]c2ccccc12)NC(=O)[C@H](CCC(N)=O)NC(=O)[C@@H](NC(=O)[C@H](Cc1ccccc1)NC(=O)[C@H](CC(=O)O)NC(=O)C(C)(C)NC(=O)[C@H](C)NC(=O)[C@H](CCCNC(=N)N)NC(=O)[C@H](CCCCNC(=O)COCCOCCNC(=O)COCCOCCNC(=O)CC[C@H](NC(=O)CCCCCCCCCCCCCCCCC(=O)O)C(=O)O)NC(=O)[C@H](CO)NC(=O)[C@H](CC(=O)O)NC(=O)[C@H](CC(C)C)NC(=O)[C@](C)(Cc1ccccc1)NC(=O)[C@H](CCCCN)NC(=O)[C@H](CO)NC(=O)[C@@H](NC(=O)[C@H](CC(=O)O)NC(=O)[C@H](CO)NC(=O)[C@@H](NC(=O)[C@H](Cc1ccccc1)NC(=O)[C@@H](NC(=O)CNC(=O)[C@H](CCC(N)=O)NC(=O)C(C)(C)NC(=O)[C@@H](N)Cc1c[nH]cn1)[C@@H](C)O)[C@@H](C)O)C(C)C)C(C)C)C(=O)N[C@@H](CC(C)C)C(=O)NC(C)(C)C(=O)N[C@H](C(=O)O)[C@@H](C)O) [Peptide 29] | 107 | 629 |
